Measured values reported in article PMC8882047.
Read-outs that look alike come from different tables or passages of the source.

Experiments:
[1] = target: human plasmin (purified) (human); experiment: enzyme inhibition titration
[2] = target: human plasmin (purified) (human); experiment: enzyme inhibition progress curves
[3] = target: human plasmin (purified) (human); experiment: enzyme inhibition titration; remark: listed apart in the source

Molecule	stoichiometry of inhibition (SI) [1]	kon [2] [M⁻¹ s⁻¹]	stoichiometry of inhibition (SI) [3]
miropin (recombinant, tag-free) (from UniProt G8UQY8 1-432) (natural protein)	2.3		
human α2-antiplasmin (natural protein) NQEQVSPLTLLKLGNQEPGGQTALKSPPGVCSRDPTPEQTHRLARAMMAFTADLFSLVAQTSTCPNLILSPLSVALALSHLALGAQNHTLQRLQQVLHAGSGPCLPHLLSRLCQDLGPGAFRLAARMYLQKGFPIKEDFLEQSEQLFGAKPVSLTGKQEDDLANINQWVKEATEGKIQEFLSGLPEDTVLLLLNAIHFQGFWRNKFDPSLTQRDSFHLDEQFTVPVEMMQARTYPLRWFLLEQPEIQVAHFPFKNNMSFVVLVPTHFEWNVSQVLANLSWDTLHPPLVWERPTKVRLPKLYLKHQMDLVATLSQLGLQELFQAPDLRGISEQSLVVSGVQHQSTLELSEVGVEAAAATSIAMSRMSLSSFSVNRPFLFFIFEDTTGLPLFVGSVRNPNPSAPRELKEQQDSPGNKDFLQSLKGFPRGDKLFGPDLKLVPPMEEDYPQFGSPK		1.3e+06	1.1
